Consider 41 sequences from the nanobody polyreactivity screen of Harvey et al. (2022).

This series is described as follows: yeast display, Sf9 membrane polyspecificity reagent, FACS + sequencing; frameworks hold sequencing errors. A digest of the protocol:
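Galactose-induced (36–48 hours) yeast carrying a synthetic nanobody display library were exposed to 10% biotinylated, detergent-solubilized Sf9 membrane reagent at 4 °C for 1 hour. FACS followed streptavidin microbead enrichment, using low and high (top ~1%) gates for expression (anti-HA) and reagent binding (streptavidin). Colony PCR, MiSeq 2 × 250 sequencing and CDR-length filtering followed. Labels for polyreactivity reflect the gate of origin.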
For the sequence “QVQLVESGGGLDQAGGSLRLSCAASGFIYWYYAMGWYRQAPVKERELVAAITRGGSTNYADSVKGRFTISRDNAKNTVYFQKNRLKPEDTSVYYCNASWRLVSSGFDGGYWGEGTQVTVSS”, the “polyreactivity (PSR sort gate)” value is “high polyreactivity”. The same measure for “QVQLVESGGGLDQAGGSLRLSCAASGFTFRWYAMGWYRQAPGKERELVAAISRGGNTNYADSVKGRFTISRDNAKNTVYLQMNSLKPEDSAVYYCARNTGPYLGYYHRYYWGHGTQVTVSS”: “high polyreactivity”; for “QVQLVESGGGLDQAGGSLRLSCAASGFTFVGNAMGWYRQAPGKERELVATITSGGNTKYADSVKGRFTISRDNAKNTVYLQMNSLKPEDTAVYYCAAAKYNYRRFNYWGQGTQVTVSS”: “low polyreactivity”; for “QVQLVESGGGLDQAGGSLRLSCAASGFTFYRNAMGWYRQAPGKERELVAAITSGGSTYYADSVKGRFTISRDNAKNTVYLQMNSLKPEDTAVYYCAAYVWSGWGHWFYYWGQGTQVTVSS”: “high polyreactivity”. As to “QVQLVESGGGLDQAGGSLRLSCAASGGIFQKYAMGWYRQAPGQERELVAAISYSTTRTYYADSVKGRFTISRDNAKKTVYLQMNSLKPEDTAVYYCAARGYFWSSYKYDYWGQGTQVTVSS”, the “polyreactivity (PSR sort gate)” value was “high polyreactivity”. The same measure for “QVQLVESGGGLDQAGGSLRLSCAASGGTFAVYAMGWYRQAPGKERELVAAIDSGGRTNYADSVKGRFTISRANAKNTVYLQMNSLKPEDTAVYYCAADGGGQYVRYDYWGQGTQVTVSS”: “high polyreactivity”. The entry for “QVQLVESGGGLDQAGGSLRLSCAASGGTFDTYAMGWYRQAPGKERELVAGIDWSGGSTYYADSVKGRFTISRDNAKNTVYLQMNSLKPEDTAVYYCAADYYYPSQMDYWGQGTQVTVSS” is “low polyreactivity”; for “QVQLVESGGGLDQAGGSLRLSCAASGIIFSSYAMGWYRQAPGKERELVAAISYSGGSTYYADSVKGRFTISRDNAKNTVYLQMNSLKPEDTAVYYCAAQGYSPGGYDYWGQGTQVTVSS” it is “low polyreactivity”; for “QVQLVESGGGLDQAGGSLRLSCAASGIIFVENAMGWYRQAPGKERELVASGDSTYADSVKGRFTISRDNAKNTVYLKMNSRKPEDTAVYYCAAEVYVYHPFVHYDYWGQGTQVTVSS” it is “low polyreactivity”. The entry for “QVQLVESGGGLDQAGGSLRLSCAASGITFKPYGMGWYRQAPGKERELVADITSGGITYYADSVKGRFTISRDNAKNTVYLQMNSLKPEDTAVYYCATGDLFVFYWGYVVRLYDYWGQGTQVTVSS” is “low polyreactivity”; for “QVQLVESGGGLDQAGGSLRLSCAASGITFQSNAMGWYRQAPGKERELVAGISGSGARTYYADSVKGRFTISRDNAKNTVYLQMNSLKPEDTAVYYCAKKSSYRYGYWGQGTQVTVSS” it is “high polyreactivity”; for “QVQLVESGGGLDQAGGSLRLSCAASGITFRYYAMGWYRQAPGKERELVATISRGVRTNYADSVKGRFTISRDNAKNTVYLQMNSLKPEDTAVYYCNADYASARRYDYWGQGTQVTVSS” it is “high polyreactivity”. Consider “QVQLVESGGGLDQAGGSLRLSCAASGLTFGGNAMGWYRQAPGKERELVAAISWSDDTTDYADSVKGRFTISRDNAKNTVYLQMNSLKPEDTAVYYCAARLPFEHVDYWGQGTQVTVSS”, for which the “polyreactivity (PSR sort gate)” value is “low polyreactivity”. The same measure for “QVQLVESGGGLDQAGGSLRLSCAASGLTFYSNAMGWYRQAPGKERELVARISTGGSTYADSVKGRFTISRDNAKNTVYLQMNSLKPEDTAVNYCAKLPPRGIDDEYWGQGTQVTVSS”: “low polyreactivity”; for “QVQLVESGGGLDQAGGSLRLSCAASGLTLAVNAMGCYRQAPGKERELVAAISRRGGSTYYADSVKGRFTISRDNSKNPVYLQMNSLKPEDTAVYYCAAKYNYSEMDSWGQGTQVTVSS”: “high polyreactivity”; for “QVQLVESGGGLDQAGGSLRLSCAASGNIFRIYAMGWYRQAPGKERELVATITKRGGSTYYADSVKGRFTISRDNAKNTVYLQMNSLKPEDTAVNYCNAVTKLWYDYDYWGQGTQGTVSS”: “high polyreactivity”. The entry for “QVQLVESGGGLDQAGGSLRLSCAASGNIFYTNAMGWYRQEPGKAREFVAAISGSGGRTYYADSVKGRFTMSRDNAKNTFYLQMNSLKPEDTEVYYCNAVRRDYYDRNYGYWGQGTQVSVSS” is “low polyreactivity”. Regarding “QVQLVESGGGLDQAGGSLRLSCAASGRIFDKYALGCYRHAPGKERELVAAISSSGGSTYYADSVKGRFTISRDNAKNTVYLQMNSLKTEDTAVYYCAKLVVVPFYYWGQGTQVTVSS”, the “polyreactivity (PSR sort gate)” value was “high polyreactivity”. The same measure for “QVQLVESGGGLDQAGGSLRLSCAASGRIFGRYAMGWYRQAPGKERELVASISRGGSTNYADSVKGRFTISRDNAKNTVYLQMNSLKPEDTAVYYCAKSGGVGGEDRVGSWGQGTQVTVSS”: “low polyreactivity”; for “QVQLVESGGGLDQAGGSLRLSCAASGRIFRYYAMGWYRQAPGKERELVAAISTSGDTTYYADSVKGRFTISRDNAKNTVYLQMNSLKPEDTAVYYCAADTYYYLVKYGSYDYWGQGTQVTVSS”: “high polyreactivity”; for “QVQLVESGGGLDQAGGSLRLSCAASGRIFYQNAMGWYRQAPGKERELVAAITSSGVSTYYADSVKGRFTISRDYAKNTVYLQMNSLKPEDTAVYYCAAYRVGYGGYSYYYWGQGTQVTVSS”: “high polyreactivity”. The entry for “QVQLVESGGGLDQAGGSLRLSCAASGRISYRYAMGSYRQAPGKEMELVASISSGVSTYYADSVKGRFTISRDNAKNTVYLQMHSLKPEDSAVYFCAAAYWFHNDYWGLGTQVTVSS” is “high polyreactivity”.

Turning to “QVQLVESGGGLDQAGGSLRLSCAASGRIYYNYAMGWYRQSPVKERELVAAISGSGGSTYYADSVKWRLTISRDNAKNTVYLLMNSLKPEDTAVYYCSTSGPQYYSRNFDYWGQGTQVTVSS”, the “polyreactivity (PSR sort gate)” value is “low polyreactivity”. With “QVQLVESGGGLDQAGGSLRLSCAASGRIYYPYARGLYRQAPGKESELVAAISSGVSTNYADSVKGRFTISRDNAKTTVYLQMNSLKPEDTAVYYCARTYFRFASSYYPAVSHGYWGQGTQVTVSS”, the “polyreactivity (PSR sort gate)” value is on record as “high polyreactivity”. The entry for “QVQLVESGGGLDQAGGSLRLSCAASGRTFEQYAMGWYRQAPGKVRELVAAISGSGGSTFYADSVKGRFTISRDNAKNTVYLQMNSLKPEDTAVYYCADKYDGSYVGLYWYSMNYCGQGTQVTVSS” is “low polyreactivity”. The entry for “QVQLVESGGGLDQAGGSLRLSCAASGRTFGGYAMGWYRQAPGKERELVARISRSGGSTYYADSVKGRFTISRDNAKNTVYFQMNSLKPEDTAVYYCNTGLRTAYGWPQDDYWGQGTQVTVSS” is “low polyreactivity”; for “QVQLVESGGGLDQAGGSLRLSCAASGRTFPYYAMGWYRQAPGKERELVAAISSSGGRTYYADSVKGRFTISRDNAKNTVYLQMNSLKPEDTAVYYCNVDAWYPYQGFLVGYYYWGQGTQVTVSS” it is “low polyreactivity”; for “QVQLVESGGGLDQAGGSLRLSCAASGRTFYNNAMGWYRPAPGKERELVAAITRGGSTYYADSVKGRFTISRDNAKNTVYLPMNSLKPEDTAVYYCAADGFTRWGRYDYWGQGTQVTVSS” it is “high polyreactivity”. Turning to “QVQLVESGGGLDQAGGSLRLSCAASGRTFYYYAMAWYRQAPRTERELVAAIRRSGSSTYYADSVKGRFTISRDNAKNTVYLQMNSLKPEDTAFYYCAAAVYQRARYYWGQGTQVTVSS”, the “polyreactivity (PSR sort gate)” value is “high polyreactivity”. The same measure for “QVQLVESGGGLDQAGGSLRLSCAASGRTLYKYAMGWYRQAPGKERELVAAIRWIGGSTYYADSVKGRFTISRDNAKNTVYLQMNSLKPEDTAVYYCAATYYYSRYGRYDYWGQGTQVTVSS”: “high polyreactivity”; for “QVQLVESGGGLDQAGGSLRLSCAASGSIFDPYAMGWYRPAPGKEREFVAVISKGGTNTYYADSVKGRFTISRDNAKNTVYLQMNSLKPEDTAGYYCAARVDTYRAKYYYWRQGTQVTVSS”: “high polyreactivity”.

Turning to “QVQLVESGGGLDQAGGSLRLSCAASGSIFEGNGMGWYRQAPGKERELVAAITFRSGSTYYADSVKGRFTISRDNAKNTVYLQMNSLKPEDTAVYYCAADEYYQVSAYDYWGQGTQVTVSS”, the “polyreactivity (PSR sort gate)” value is “low polyreactivity”. For “QVQLVESGGGLDQAGGSLRLSCAASGSIFEPYDMGWYRQAPGKERELVASISRGGSTYYADSVKGRFTISRDNAKNTVYLQMNSLKPEDTAVYYCAADPYYYSSGYYYWGQGTQVTVSS”, the “polyreactivity (PSR sort gate)” value was “low polyreactivity”. Turning to “QVQLVESGGGLDQAGGSLRLSCAASGSIFGYAMGWYRQAPGKERELLAAITDSGGRTYYADSVKGRFTISRDNAKNTVYLQMNSLKPEDTAVYYCAKTWYPWSRYGYYRRYDSWGQGTQVNVSS”, the “polyreactivity (PSR sort gate)” value is “low polyreactivity”. The same measure for “QVQLVESGGGLDQAGGSLRLSCAASGSIFPDYAMGWYIPAPGKERELVAAITWSGGNTYYADSVKGRFTISRDNAKNTVYLQMNSLKPEDTAVYYCAADISLHWYYYRRYNYWGQGTQVTVSS”: “low polyreactivity”. The entry for “QVQLVESGGGLDQAGGSLRLSCAASGSIFQDYAMGWYRQAPGKERELVAAITKSGVSTYYADSVKGRFTISRDNAKNTVYLQMNSLKPEDTAVYYCAAPRYVRYHRGYGFDYWGQGTQVTVSS” is “low polyreactivity”; for “QVQLVESGGGLDQAGGSLRLSCAASGSIFYRNAMGWYRQAPGKEMELVAAISGRGGSTNYADSVKGRFTISRDNAKNTVYLPMNSLKPEDTAVYYCNRFGVSNILVRGGYWGLGTQVTVSS” it is “high polyreactivity”. Take “QVQLVESGGGLDQAGGSLRLSCAASGSTFDWYTMGWNRQAPGKERELVAAISSGGRTYYADSVKGRFTISRDNAKNTVYLQMNSLKPEDTAVYYCAVAWRVGITKYGYWGQGTQVTVSS”: the “polyreactivity (PSR sort gate)” value is listed as “high polyreactivity”.

Regarding “QVQLVESGGGLDQAGGSLRLSCAASGSTFGYYAMGWYREAPGKERELVASITSDGSTNYADSVKGRFTISRDNAKNTVYLQMNSLKPEDTAVYYCAAYVWRYWHEYDYWGQGTLVTVSS”, the “polyreactivity (PSR sort gate)” value was “low polyreactivity”.

For the sequence “QVQLVESGGGLDQAGGSLRLSCAASGSTFNSYAMGWYRQAPGKERELVAAITSSVGSTYYADSVKGRFTISRDNAKNTVYLQMNSLKPEDTAVYYCAADYFSYWYFSGYDYWGQGTQVTVSS”, the “polyreactivity (PSR sort gate)” value is “low polyreactivity”. The entry for “QVQLVESGGGLDQAGGSLRLSCAASGSTFNSYVMGCYRQAPGKEREFVAAISWSGVRTYYADSVKGRFTISRDNAKNTVFLQMNSLIPEDTAVYYCAVRSGRRNYYRPAFGYWGQGTQVTVSS” is “high polyreactivity”.
